The test deals with CA-XII as used in the enzyme inhibition assay (Homo sapiens (Human), UniProt O43570 25-301, limits assumed). In words: cell-based or functional assay.
CA-XII as used in the enzyme inhibition assay, sequence (O43570 25-301 limits assumed): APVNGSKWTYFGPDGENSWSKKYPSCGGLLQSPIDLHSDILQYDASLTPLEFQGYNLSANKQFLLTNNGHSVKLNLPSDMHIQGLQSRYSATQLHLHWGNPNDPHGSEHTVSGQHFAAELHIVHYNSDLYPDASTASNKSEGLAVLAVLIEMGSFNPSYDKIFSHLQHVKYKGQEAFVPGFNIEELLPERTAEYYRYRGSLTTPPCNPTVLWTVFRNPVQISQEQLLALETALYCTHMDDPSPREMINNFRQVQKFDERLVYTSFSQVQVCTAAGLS

B1: EXO 6A10 (antibody, V domains shown)
VH: EVKLEESGPGLVQPSETLSLTCTVSGFSLTTYSVSWVRQPSGKGPEWMGRMWYDGDTVYNSALKSRLSISRDTSKNQVFLKMNSLETDETGTYYCTRDFGYFDGSSPFDYWGQGVMVTVSS
VL: DIVMTQTPATLSVTPGESVSLSCRASQGISTSIHWYQQKSNESPRLLIKFASQSISGIPSRFSGSGSGTDFTLSINRVESEDFSVYFCQQTYSLPYTFGAGTKLELK
As for B1, the “inhibition of CA-XII (enzyme activity), IC50” value was 6.14 nM.

The values are drawn from patent US20130231465A1 (HEMHOLTZ ZENTRUM MUNCHEN DEUTCHES FORSCHUNGSZENTRUM FUR …, published 2013).
